The test addresses T1, flag–Lte1 (budding yeast, UniProt P07866 1-1435).
T1 sequence (looked up): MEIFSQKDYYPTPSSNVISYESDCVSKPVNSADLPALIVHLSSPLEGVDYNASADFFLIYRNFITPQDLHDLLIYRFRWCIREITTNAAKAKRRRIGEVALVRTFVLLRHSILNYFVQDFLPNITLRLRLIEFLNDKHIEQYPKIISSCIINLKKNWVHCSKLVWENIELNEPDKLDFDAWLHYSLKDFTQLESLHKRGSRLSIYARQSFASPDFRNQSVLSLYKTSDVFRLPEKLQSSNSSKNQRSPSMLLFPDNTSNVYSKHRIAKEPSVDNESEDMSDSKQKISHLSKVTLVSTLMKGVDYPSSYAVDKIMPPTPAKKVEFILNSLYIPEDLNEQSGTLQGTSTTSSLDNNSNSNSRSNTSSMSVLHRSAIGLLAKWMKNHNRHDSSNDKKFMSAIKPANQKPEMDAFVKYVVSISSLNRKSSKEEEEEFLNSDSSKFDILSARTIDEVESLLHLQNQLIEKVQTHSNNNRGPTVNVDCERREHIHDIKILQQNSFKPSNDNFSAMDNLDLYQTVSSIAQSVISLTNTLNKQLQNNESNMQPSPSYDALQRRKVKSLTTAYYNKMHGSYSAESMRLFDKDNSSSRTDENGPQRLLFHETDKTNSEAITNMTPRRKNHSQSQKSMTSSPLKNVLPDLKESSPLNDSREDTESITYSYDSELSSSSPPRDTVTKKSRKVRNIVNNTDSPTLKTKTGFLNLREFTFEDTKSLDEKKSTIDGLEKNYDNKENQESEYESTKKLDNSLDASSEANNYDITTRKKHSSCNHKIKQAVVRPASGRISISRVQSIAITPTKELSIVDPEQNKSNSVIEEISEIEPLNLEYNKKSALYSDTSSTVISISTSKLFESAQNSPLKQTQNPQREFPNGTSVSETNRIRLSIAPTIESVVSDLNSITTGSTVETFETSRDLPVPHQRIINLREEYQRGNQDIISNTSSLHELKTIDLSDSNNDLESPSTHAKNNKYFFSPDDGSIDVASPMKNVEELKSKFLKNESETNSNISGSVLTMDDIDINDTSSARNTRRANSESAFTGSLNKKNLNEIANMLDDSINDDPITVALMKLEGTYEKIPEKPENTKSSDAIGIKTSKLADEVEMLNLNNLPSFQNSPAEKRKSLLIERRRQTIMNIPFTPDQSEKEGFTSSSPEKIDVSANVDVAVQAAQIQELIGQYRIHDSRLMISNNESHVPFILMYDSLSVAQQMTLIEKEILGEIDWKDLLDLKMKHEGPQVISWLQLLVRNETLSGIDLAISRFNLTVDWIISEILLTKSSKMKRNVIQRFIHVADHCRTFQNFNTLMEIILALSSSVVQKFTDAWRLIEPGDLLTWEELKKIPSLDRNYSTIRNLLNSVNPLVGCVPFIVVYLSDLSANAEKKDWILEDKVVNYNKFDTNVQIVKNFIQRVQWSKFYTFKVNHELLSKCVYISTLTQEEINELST
The experiment in a line: pull-down.

B1: Ras2 protein purified from the insect cells (natural protein, budding yeast, UniProt P01120 1-322, looked up)
chain: MPLNKSNIREYKLVVVGGGGVGKSALTIQLTQSHFVDEYDPTIEDSYRKQVVIDDEVSILDILDTAGQEEYSAMREQYMRNGEGFLLVYSITSKSSLDELMTYYQQILRVKDTDYVPIVVVGNKSDLENEKQVSYQDGLNMAKQMNAPFLETSAKQAINVEEAFYTLARLVRDEGGKYNKTLTENDNSKQTSQDTKGSGANSVPRNSGGHRKMSNAANGKNVNSSTTVVNARNASIESKTGLAGNQATNGKTQTDRTNIDNSTGQAGQANAQSANTVNNRVNNNSKAGQVSNAKQARKQQAAPGGNTSEASKSGSGGCCIIS
Regarding B1, the binding result is “binds”.

The record behind these values is publication PMC2172978 (The Journal of Cell Biology, 2003).
